pKd: −log10 of the molar value.
Assays:
[1] = biological target: antibody 5J8, wild type (human IgG1 monoclonal antibody) (human); assay: BLI
[2] = biological target: antibody 5J8, FA variant (Q295F/Y296A), EAS-stabilized (human); assay: BLI

| Substance | pKd [1] | pKd [2] |
| --- | --- | --- |
| Fc gamma receptor IIa (FcγRIIa), recombinant (from UniProt P12318 34-217) | 6.57 |  |
| Fc gamma receptor IIIa (FcγRIIIa), recombinant (from UniProt P08637 17-208) |  | 6.00 |
